Data from patent US20180291096A1 (Janssen / Centocor, published 2018).
Read-outs that look alike come from different tables or passages of the source.

T1: recombinant human IL-23 (hrIL-23), produced at Centocor (human, UniProt P29460 23-328)
T1 construct: p19-p40 heterodimer; also called rhIL-23; huIL-23
T1 sequence 1: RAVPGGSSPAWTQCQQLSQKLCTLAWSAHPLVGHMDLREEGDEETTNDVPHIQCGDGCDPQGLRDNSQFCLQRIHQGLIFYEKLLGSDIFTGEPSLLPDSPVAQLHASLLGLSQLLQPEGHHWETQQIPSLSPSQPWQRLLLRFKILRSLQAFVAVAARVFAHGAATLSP
T1 sequence 2: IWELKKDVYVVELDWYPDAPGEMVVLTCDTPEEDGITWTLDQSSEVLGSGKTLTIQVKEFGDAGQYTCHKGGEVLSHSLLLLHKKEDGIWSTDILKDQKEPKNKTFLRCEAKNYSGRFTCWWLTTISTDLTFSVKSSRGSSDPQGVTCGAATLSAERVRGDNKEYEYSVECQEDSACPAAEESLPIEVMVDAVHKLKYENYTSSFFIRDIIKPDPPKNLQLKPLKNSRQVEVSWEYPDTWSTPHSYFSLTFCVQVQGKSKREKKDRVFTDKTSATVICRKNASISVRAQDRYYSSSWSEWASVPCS

B1: MOR05053 Fab (Fab, V domains shown)
VH: QVQLVESGGGLVQPGGSLRLSCAASGFTFSSFGMSWVRQAPGKGLEWVSNIEHKYTSYTTYYAASVKGRFTISRDNSKNTLYLQMNSLRAEDTAVYYCARYWGTPYLMQFDNWGQGTLVTVSS
VL: DIALTQPASVSGSPGQSITISCTGTSSDVGGYNSVSWYQQHPGKAPKLMIYSVSSRPSGVSNRFSGSKSGNTASLTISGLQAEDEADYYCSSYDTNKPLVVFGGGTKLTVL
notes: Fab
B2: MOR05050 Fab (Fab, V domains shown)
VH: QVQLVESGGGLVQPGGSLRLSCAASGFTFSSFGMSWVRQAPGKGLEWVSSIEHKYTGYTTYYAAPVKGRFTISRDNSKNTLYLQMNSLRAEDTAVYYCARYWGTPYLMQFDNWGQGTLVTVSS
VL: DIALTQPASVSGSPGQSITISCTGTSSDVGGYNSVSWYQQHPGKAPKLMIYSVSSRPSGVSNRFSGSKSGNTASLTISGLQAEDEADYYCSSYDTNKPLVVFGGGTKLTVL
notes: Fab
B3: MOR05056 Fab (Fab, V domains shown)
VH: QVQLVESGGGLVQPGGSLRLSCAASGFTFSSFGMSWVRQAPGKGLEWVSSIEHKYLSYATYYAAGVKGRFTISRDNSKNTLYLQMNSLRAEDTAVYYCARYWGTPYLMQFDNWGQGTLVTVSS
VL: DIALTQPASVSGSPGQSITISCTGTSSDVGGYNSVSWYQQHPGKAPKLMIYSVSSRPSGVSNRFSGSKSGNTASLTISGLQAEDEADYYCSSYDTNKPLVVFGGGTKLTVL
notes: Fab
B4: MOR05039 Fab (Fab, V domains shown)
VH: QVQLVESGGGLVQPGGSLRLSCAASGFTFSSFGMSWVRQAPGKGLEWVSNIEHKYLNYATYYAASVKGRFTISRDNSKNTLYLQMNSLRAEDTAVYYCARYWGTPYLMQFDNWGQGTLVTVSS
VL: DIALTQPASVSGSPGQSITISCTGTSSDVGGYNSVSWYQQHPGKAPKLMIYSVSSRPSGVSNRFSGSKSGNTASLTISGLQAEDEADYYCSSYDTNKPLVVFGGGTKLTVL
notes: Fab
B5: MOR05048 Fab (Fab, V domains shown)
VH: QVQLVESGGGLVQPGGSLRLSCAASGFTFSSFGMSWVRQAPGKGLEWVSNIEHKFMGYTTYYAAGVKGRFTISRDNSKNTLYLQMNSLRAEDTAVYYCARYWGTPYLMQFDNWGQGTLVTVSS
VL: DIALTQPASVSGSPGQSITISCTGTSSDVGGYNSVSWYQQHPGKAPKLMIYSVSSRPSGVSNRFSGSKSGNTASLTISGLQAEDEADYYCSSYDTNKPLVVFGGGTKLTVL
notes: Fab
B6: MOR04658 mAb (antibody, human IgG1, V domains shown)
VH: QVELVESGGGLVQPGGSLRLSCAASGFTFSSFGMSWVRQAPGKGLEWVSNISSSGSSTYYADSVKGRFTISRDNSKNTLYLQMNSLRAEDTAVYYCARYWGTPYLMQFDNWGQGTLVTVSS
VL: DIALTQPASVSGSPGQSITISCTGTSSDVGGYNSVSWYQQHPGKAPKLMIYSVSSRPSGVSNRFSGSKSGNTASLTISGLQAEDEADYYCSSYDTNKPLVVFGGGTKLTVL
B7: MOR05047 Fab (Fab, V domains shown)
VH: QVQLVESGGGLVQPGGSLRLSCAASGFTFSSFGMSWVRQAPGKGLEWVSNIEHKYLGYATSYAASVKGRFTISRDNSKNTLYLQMNSLRAEDTAVYYCARYWGTPYLMQFDNWGQGTLVTVSS
VL: DIALTQPASVSGSPGQSITISCTGTSSDVGGYNSVSWYQQHPGKAPKLMIYSVSSRPSGVSNRFSGSKSGNTASLTISGLQAEDEADYYCSSYDTNKPLVVFGGGTKLTVL
notes: Fab
B8: MOR05052 Fab (Fab, V domains shown)
VH: QVQLVESGGGLVQPGGSLRLSCAASGFTFSSFGMSWVRQAPGKGLEWVSSIEHKYLSYTTFYAASVKGRFTISRDNSKNTLYLQMNSLRAEDTAVYYCARYWGTPYLMQFDNWGQGTLVTVSS
VL: DIALTQPASVSGSPGQSITISCTGTSSDVGGYNSVSWYQQHPGKAPKLMIYSVSSRPSGVSNRFSGSKSGNTASLTISGLQAEDEADYYCSSYDTNKPLVVFGGGTKLTVL
notes: Fab
B9: MOR05055 Fab (Fab, V domains shown)
VH: QVQLVESGGGLVQPGGSLRLSCAASGFTFSSFGMSWVRQAPGKGLEWVSNIEHKYLGYATVYAASVKGRFTISRDNSKNTLYLQMNSLRAEDTAVYYCARYWGTPYLMQFDNWGQGTLVTVSS
VL: DIALTQPASVSGSPGQSITISCTGTSSDVGGYNSVSWYQQHPGKAPKLMIYSVSSRPSGVSNRFSGSKSGNTASLTISGLQAEDEADYYCSSYDTNKPLVVFGGGTKLTVL
notes: Fab
B10: MOR05041 Fab (Fab, V domains shown)
VH: QVQLVQSGAEVKKPGESLKISCKGSGYSFSNYWIGWVRQMPGKGLEWMGIISPTGSVTWYSPSFQGQVTISADKSISTAYLQWSSLKASDTAMYYCARWYYKPFDVWGQGTLVTVSS
VL: DIVLTQPPSVSGAPGQRVTISCTGSSSNIGSGYDVHWYQQLPGTAPKLLIYGNSKRPSGVPDRFSGSKSGTSASLAITGLQSEDEADYYCSSWTPSSVVFGGGTKLTVL
notes: Fab
B11: MOR05059 Fab (Fab, V domains shown)
VH: QVQLVQSGAEVKKPGESLKISCKGSGYSFSNYWIGWVRQMPGKGLEWMGIIDPSNSYTNYSPSFQGQVTISADKSISTAYLQWSSLKASDTAMYYCARWYYKPFDVWGQGTLVTVSS
VL: DIVLTQPPSVSGAPGQRVTISCTGSSSNIGSGYDVHWYQQLPGTAPKLLIYGNSKRPSGVPDRFSGSKSGTSASLAITGLQSEDEADYYCASWTDGLSLVVFGGGTKLTVL
notes: Fab
B12: MOR05043 Fab (Fab, V domains shown)
VH: QVQLVQSGAEVKKPGESLKISCKGSGYSFSNYWIGWVRQMPGKGLEWMGFISPDGSHTWYSPSFQGQVTISADKSISTAYLQWSSLKASDTAMYYCARWYYKPFDVWGQGTLVTVSS
VL: DIVLTQPPSVSGAPGQRVTISCTGSSSNIGSGYDVHWYQQLPGTAPKLLIYGNSKRPSGVPDRFSGSKSGTSASLAITGLQSEDEADYYCSSWTPSSVVFGGGTKLTVL
notes: Fab
B13: MOR05046 Fab (Fab, V domains shown)
VH: QVQLVQSGAEVKKPGESLKISCKGSGYSFSNYWIGWVRQMPGKGLEWMGIIDPVSSWTKYSPSFQGQVTISADKSISTAYLQWSSLKASDTAMYYCARWYYKPFDVWGQGTLVTVSS
VL: DIVLTQPPSVSGAPGQRVTISCTGSSSNIGSGYDVHWYQQLPGTAPKLLIYGNSKRPSGVPDRFSGSKSGTSASLAITGLQSEDEADYYCSSWTPSSVVFGGGTKLTVL
notes: Fab
B14: MOR05058 Fab (Fab, V domains shown)
VH: QVQLVQSGAEVKKPGESLKISCKGSGYSFSNYWIGWVRQMPGKGLEWMGIIDPSNSYTNYSPSFQGQVTISADKSISTAYLQWSSLKASDTAMYYCARWYYKPFDVWGQGTLVTVSS
VL: DIVLTQPPSVSGAPGQRVTISCTGSSSNIGSGYDVHWYQQLPGTAPKLLIYGNSKRPSGVPDRFSGSKSGTSASLAITGLQSEDEADYYCSSWTDTPNMIVFGGGTKLTVL
notes: Fab
B15: MOR05044 Fab (Fab, V domains shown)
VH: QVQLVQSGAEVKKPGESLKISCKGSGYSFSNYWIGWVRQMPGKGLEWMGIISPSGSTTWYSPSFQGQVTISADKSISTAYLQWSSLKASDTAMYYCARWYYKPFDVWGQGTLVTVSS
VL: DIVLTQPPSVSGAPGQRVTISCTGSSSNIGSGYDVHWYQQLPGTAPKLLIYGNSKRPSGVPDRFSGSKSGTSASLAITGLQSEDEADYYCSSWTPSSVVFGGGTKLTVL
notes: Fab
B16: MOR05034 Fab (Fab, V domains shown)
VH: QVQLVQSGAEVKKPGSSVKVSCKASGGTFSSNYISWVRQAPGQGLEWMGLIDPNFGGAYYAQKFQGRVTITADESTSTAYMELSSLRSEDTAVYYCARSKKGMYGGWTYPLMMFDLWGQGTLVTVSS
VL: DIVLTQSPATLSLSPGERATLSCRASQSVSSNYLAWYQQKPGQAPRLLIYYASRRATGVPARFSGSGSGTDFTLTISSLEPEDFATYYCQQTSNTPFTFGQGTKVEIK
notes: Fab
B17: MOR05036 Fab (Fab, V domains shown)
VH: QVQLVQSGAEVKKPGSSVKVSCKASGGTFSSNYISWVRQAPGQGLEWMGLIDPVFGGAYYAQKFQGRVTITADESTSTAYMELSSLRSEDTAVYYCARSKKGMYGGWTYPLMMFDLWGQGTLVTVSS
VL: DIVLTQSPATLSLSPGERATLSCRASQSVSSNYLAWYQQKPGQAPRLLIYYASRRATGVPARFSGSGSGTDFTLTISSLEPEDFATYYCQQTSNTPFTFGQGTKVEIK
notes: Fab
B18: MOR05267 Fab (Fab, V domains shown)
VH: QVQLVQSGAEVKKPGSSVKVSCKASGGTFSNYAISWVRQAPGQGLEWMGGIIPMFGYANYAQKFQGRVTITADESTSTAYMELSSLRSEDTAVYYCARDIYAGMDVWGQGTLVTVSS
VL: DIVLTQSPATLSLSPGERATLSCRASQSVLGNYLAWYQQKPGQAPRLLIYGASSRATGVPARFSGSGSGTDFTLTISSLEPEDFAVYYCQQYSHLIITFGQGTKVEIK
notes: Fab
B19: MOR05269 Fab (Fab, V domains shown)
VH: QVQLVQSGAEVKKPGSSVKVSCKASGGTFSNYAISWVRQAPGQGLEWMGGIIPMFGYANYAQKFQGRVTITADESTSTAYMELSSLRSEDTAVYYCARDIYAGMDVWGQGTLVTVSS
VL: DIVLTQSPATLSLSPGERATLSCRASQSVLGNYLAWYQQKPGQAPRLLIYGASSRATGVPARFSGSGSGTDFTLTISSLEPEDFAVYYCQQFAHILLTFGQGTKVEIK
notes: Fab
B20: MOR05268 Fab (Fab, V domains shown)
VH: QVQLVQSGAEVKKPGSSVKVSCKASGGTFSNYAISWVRQAPGQGLEWMGGIIPMFGYANYAQKFQGRVTITADESTSTAYMELSSLRSEDTAVYYCARDIYAGMDVWGQGTLVTVSS
VL: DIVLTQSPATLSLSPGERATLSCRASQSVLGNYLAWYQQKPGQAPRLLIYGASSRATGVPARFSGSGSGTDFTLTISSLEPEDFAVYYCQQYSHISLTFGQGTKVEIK
notes: Fab

Columns and labels:
[1] = target: T1, recombinant human IL-23 (hrIL-23), …; experiment: SET
[2] = target: T1, recombinant human IL-23 (hrIL-23), …; experiment: IL-23/IL-23R competition assay
[3] = target: T1, recombinant human IL-23 (hrIL-23), …; experiment: cell-based or functional assay
[4] = target: T1, recombinant human IL-23 (hrIL-23), …; experiment: SET; remark: listed apart in the source
[5] = target: T1, recombinant human IL-23 (hrIL-23), …; experiment: IL-23/IL-23R competition assay; remark: listed apart in the source

| Binder | Kd [1] [pM] | IC50 [2] [pM] | IC50, inhibition of IL-17 production [3] [µg/mL] | Kd [4] [pM] | IC50 [5] [pM] |
| --- | --- | --- | --- | --- | --- |
| B1 | 27 | 980 |  |  |  |
| B2 | 23 | 890 |  |  |  |
| B3 | 65 | 520 |  |  |  |
| B4 | 27 | 100 |  |  |  |
| B5 | 20 | 100 |  |  |  |
| B6 |  |  | 1.96 |  |  |
| B7 | 36 | 130 |  |  |  |
| B8 | 10 | 580 |  |  |  |
| B9 | 29 | 790 |  |  |  |
| B10 |  |  |  | 41 | 70 |
| B11 |  |  |  | 93 | 690 |
| B12 |  |  |  | 18 | 50 |
| B13 |  |  |  | 23 | 80 |
| B14 |  |  |  | 33 | 110 |
| B15 |  |  |  | 43 | 50 |
| B16 |  |  |  | 126 | 400 |
| B17 |  |  |  | 32 | 320 |
| B18 |  |  |  | 2000 | 140 |
| B19 |  |  |  | 960 | 200 |
| B20 |  |  |  | 660 | 150 |
